T1: GST-ASK1 fusion protein (Arabidopsis thaliana, UniProt Q39255)
T1 construct: made in house; host or cells: Escherichia coli BL21(DE3) pLysS
T1 sequence (Q39255 1-160): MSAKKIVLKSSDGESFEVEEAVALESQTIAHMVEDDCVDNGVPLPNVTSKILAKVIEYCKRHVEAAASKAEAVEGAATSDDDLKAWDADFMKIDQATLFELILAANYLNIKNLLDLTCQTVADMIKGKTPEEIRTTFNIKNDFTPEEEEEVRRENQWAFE

T2: ASK1(1-160) (Arabidopsis thaliana, UniProt Q39255)
T2 construct: constructing the plasmid pGAD424-ASK1(1-160)[3] expressing fusion protein of ASK1 and GAL4-4AD; expressed in transfected cells; host or cells: Saccharomyces cerevisiae HF7c
T2 sequence (Q39255 1-160): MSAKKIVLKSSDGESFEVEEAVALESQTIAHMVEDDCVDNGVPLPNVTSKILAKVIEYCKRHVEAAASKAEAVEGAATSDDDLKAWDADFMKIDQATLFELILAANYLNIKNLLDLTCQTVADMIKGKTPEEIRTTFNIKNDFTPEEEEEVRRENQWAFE


What was measured:
[1] = biological target: T1, GST-ASK1 fusion protein; assay: In vitro binding assay with GST-ASK1 fusion protein; conditions: 35S-labeled in vitro translation product; glutathione beads; GST as negative control
Description: In order to examine that ORE9 protein or derivatives thereof directly bind with ASK1, a GST-ASK1 fusion protein and a ^35S-labeled ORE9 protein produced by in vitro translation were subjected to in vitro binding assay. To obtain a glutathione S-transferase (GST) protein and a GST-ASK1 fusion protein, a vector pGEX (APBiotech, Co.) and a vector pGEX-ASK1 were constructed, which express the above proteins, respectively. Artificial sequences represented by SEQ ID NO: 14 and SEQ ID NO: 15 were used as PCR primers to amplify a gene encoding the ASK1 fragment. The resulting PCR product was digested with EcoRI and NcoI restriction enzymes, and inserted into the restriction enzyme sites of the pGEX vector. Escherichia coli BL21(DE3) pLysS was transformed with the resulting two vectors, and GST and GST-ASK1 fusion proteins were expressed. The GST and GST-ASK1 fusion proteins were purified by chromatography with glutathione-Sepharose 4B beads. The purified proteins was subjected to electrophoresis with SDS-polyacryamide gets, dyed with Coomassie blue, and measured for their amount. GST and GST-ASK1 fusion proteins of the same amount were added to glutathione beads, which had been previously washed with 10-fold volume of B buffer (20 mM […], pH 7.6, 150 mM sodium chloride, 10% glycerol, 0.5% NP-40, 1 mM DTT) three times. Then, the resulting proteins were adsorbed 4° C. for one hour using a rotating mixer. The provided beads were washed with 1 ml B buffer three times, and then stored in a state where the ratio of slurries relative to B buffer is 50%.
Meanwhile, a radioactivity-labeled ORE9 (1-693), the mutant type ore9 and ORE9 derivatives (1-327 and 50-693) were prepared using the in vitro transcription/translation system (Promega, USA) and [^35S]-methionine (DuPont NEN, USA). The proteins were quantitatively analyzed with SDS-PAGE and BAS radioanalytic imaging system (Japan). Then, the respective ^35S-labeled translation products of the same amount were mixed with 60 μl GST-adsorbed beads or GST-ASK1 fusion protein-absorbed beads, contained in 1 ml GB buffer (final concentration: 20 mM Tris-HCl, pH 7.5, 0.15% NP-40, 150 mM NaCl, 1 mM EDTA). The resulting beads were cultured in a rotating mixer at 4° C. for two hours, and then washed with 1 ml GB buffer four times. The washed beads were added with 30 μl of 2×SDS sample solutions, boiled for three minutes and then isolated with SDS-PAGE. The resulting gels were dried to dryness, and then exposed to X-ray film.

[2] = biological target: T2, ASK1(1-160); assay: Yeast two-hybrid assay with ASK1; type: cell-based; conditions: HF7c yeast; for binding with ASK1 in yeast two-hybrid assay: GAL4-BD fusion
Description: As expression vectors of expressing GAL4 DNA binding domain (GAL4-BD) and ORE9 fusion protein, plasmids pGBT9-ORE9 (1-49) and pGBT9-ORE9 (50-693) were constructed. The plasmid pGBT9-ORE9 expresses a fragment of ORE9 containing N-terminal 1-49th amino acids corresponding to an F-box region of ORE9, and the plasmid pGBT9-ORE9 (50-693) expresses a fragment of ORE9 containing 50-693th amino acids from which the F-box region was removed.
First, the gene encoding the ORE9 (1-49) fragment was amplified by PCR using a primer represented by SEQ ID NO: 10 and SEQ ID NO: 11, and then inserted into BamHI and PstI restriction enzyme sites of pGBT9 (Clontech, USA) containing a 4-BD gene and a tryptophan auxotrophic selection marker gene (TRP1), thereby constructing the plasmid pGBT9-ORE9 (1-49). Similarly, the plasmid pGBT 9-ORE9 (50-693) was constructed, which expresses an ORE9 (50-693) fragment and a GAL4-BD fusion protein. In this case, oligonucletides represented by SEQ ID NO: 12 and SEQ ID NO: 13 were used as PCR primers to amplify the gene encoding the ORE9 (50-693) fragment.
Meanwhile, regarding ASK1(1-160) and ASK2(1-172) proteins used for identification of binding, pGAD424-ASK1(1-160) and pGAD424-ASK2(1-172) were constructed in such a manner that ASK1(1-160) and ASK2(1-172) are expressed in the form of a fusion protein with a […]. pGTE-ASK1(1-160) containing an ASK1(1-160) gene was digested with BamHI and PstI, and then inserted into pGAD424 (Clontech, USA) containing a GAL4-AD gene and a leucine auxotrophic selection marker gene (LEU2), thereby constructing the plasmid pGAD424-ASK1(1-160)[3] expressing fusion protein of ASK1 and GAL4-4AD. Similarly, the plasmid pGAD424-ASK2(1-172)[4] was constructed by inserting a BamHI/PstI fragment of pGTE-ASK2(1-172) into pGAD424.
Yeast strains, HF7c, were cultured in an YPD (yeast extract, peptone, dextrose) medium or a synthetic minimal medium (SD) containing 2% dextrose.
The HF7c yeast strains grown in the medium were transformed with different combinations of the vectors constructed in the above Example 6-1) ([1+3], [2+3] and [1+4]; see the left upper portion of FIG. 7b), respectively, by the lithium acetate method (Feilotter et al., 1994). The transformants were selected in a synthetic minimal medium containing 2% dextrose. The transformants were cultured in a SD medium from which tryptophan and leucine were removed (see the right upper portion of FIG. 7b), and in a SD medium from which tryptophan, leucine and histidine were removed and which contains 2 mM 3-amino-1,2,4-triazole (3-AT) (see the left lower portion of FIG. 7b).
The transformants were grown in a synthesis minimal medium, and the grown yeast colonies were examined for β-galactosidase activities on a filter paper. […]

| Molecule | binding (co-precipitation) with GST-ASK1 [1] | growth of transformed yeast in histidine deficient medium ([2]; GAL4-BD fusion with GAL4-AD-ASK1(1-160), SD medium without tryptophan, leucine, histidine, 2 mM 3-AT) | β-galactosidase activity of transformed yeast ([2]; with ASK1(1-160) plasmid, X-gal filter assay) | binding with ASK1 in yeast two-hybrid assay [2] |
| --- | --- | --- | --- | --- |
| ORE9 (1-327): part of ORE9 (1-327) containing the F-box region (protein, UniProt Q9SIM9 1-327, looked up, fragment) MASTTLSDLPDVILSTISSLVSDSRARNSLSLVSHKFLALERSTRSHLTIRGNARDLSLVPDCFRSISHLDLSFLSPWGHTLLASLPIDHQNLLALRLKFCFPFVESLNVYTRSPSSLELLLPQWPRIRHIKLLRWHQRASQIPTGGDFVPIFEHCGGFLESLDLSNFYHWTEDLPPVLLRYADVAARLTRLDLLTASFTEGYKSSEIVSITKSCPNLKTFRVACTFDPRYFEFVGDETLSAVATSSPKLTLLHMVDTASLANPRAIPGTEAGDSAVTAGTLIEVFSGLPNLEELVLDVGKDVKHSGVALEALNSKCKKLRVLKLGQ | co-precipitated with the GST-ASK1 fusion protein |  |  |  |
| ORE9(1-49): fragment of ORE9 containing N-terminal 1-49th amino acids corresponding to the F-box region (protein) MKLLSSIEQACDICRLKKLKCSKEKPKCAKCLKNNWECRYSPKTKRSPLTRAHLTEVESRLERLEQLFLLIFPREDLDMILKMDSLQDIKALLTGLFVQDNVNKDAVTDRLASVETDMPLTLRQHRISATSSSEESSNKGQRQLTVSMASTTLSDLPDVILSTISSLVSDSRARNSLSLVSHKFLALERSTRSHLT |  | grown in the histidine deficient medium | exhibit the β-galactosidase activity |  |
| ORE9 (50-693): fragment of ORE9 containing 50-693th amino acids from which the F-box region was removed (protein) MKLLSSIEQACDICRLKKLKCSKEKPKCAKCLKNNWECRYSPKTKRSPLTRAHLTEVESRLERLEQLFLLIFPREDLDMILKMDSLQDIKALLTGLFVQDNVNKDAVTDRLASVETDMPLTLRQHRISATSSSEESSNKGQRQLTVSIRGNARDLSLVPDCFRSISHLDLSFLSPWGHTLLASLPIDHQNLLALRLKFCFPFVESLNVYTRSPSSLELLLPQWPRIRHIKLLRWHQRASQIPTGGDFVPIFEHCGGFLESLDLSNFYHWTEDLPPVLLRYADVAARLTRLDLLTASFTEGYKSSEIVSITKSCPNLKTFRVACTFDPRYFEFVGDETLSAVATSSPKLTLLHMVDTASLANPRAIPGTEAGDSAVTAGTLIEVFSGLPNLEELVLDVGKDVKHSGVALEALNSKCKKLRVLKLGQFQGVCSATEWRRLDGVALCGGLQSLSIKNSGDLTDMGLVAIGRGCCKLTTFEIQGCENVTVDGLRTMVSLRSKTLTDVRISCCKNLDTAASLKAIEPICDRIKRLHIDCVWSGSEDEEVEGRVETSEADHEEEDDGYERSQKRCKYSFEEEHCSTSDVNGFCSEDRVWEKLEYLSLWINVGEFLTPLPMTGLDDCPNLEEIRIKIEGDCRGKRRPAEPEFGLSCLALYPKLSKMQLDCGDTIGFALTAPPMQMDLSLWERFFLTGIGSLSLSELDYWPPQDRDVNQRSLSLPGAGLLQECLTLRKLFIHGTAHEHFMNFLLRIPNLRDVQLRADYYPAPENDMSTEMRVGSCSRFEDQLNSRNIID | fails to bind with GST-ASK1 |  |  | fails to bind with ASK1 |
| ORE9 (1-693): complete ORE9 protein, 693 amino acids, F-box motif and 18 LRRs, SEQ ID NO: 2 (protein, listed as Arabidopsis thaliana) MASTTLSDLPDVILSTISSLVSDSRARNSLSLVSHKFLALERSTRSHLTIRGNARDLSLVPDCFRSISHLDLSFLSPWGHTLLASLPIDHQNLLALRLKFCFPFVESLNVYTRSPSSLELLLPQWPRIRHIKLLRWHQRASQIPTGGDFVPIFEHCGGFLESLDLSNFYHWTEDLPPVLLRYADVAARLTRLDLLTASFTEGYKSSEIVSITKSCPNLKTFRVACTFDPRYFEFVGDETLSAVATSSPKLTLLHMVDTASLANPRAIPGTEAGDSAVTAGTLIEVFSGLPNLEELVLDVGKDVKHSGVALEALNSKCKKLRVLKLGQFQGVCSATEWRRLDGVALCGGLQSLSIKNSGDLTDMGLVAIGRGCCKLTTFEIQGCENVTVDGLRTMVSLRSKTLTDVRISCCKNLDTAASLKAIEPICDRIKRLHIDCVWSGSEDEEVEGRVETSEADHEEEDDGYERSQKRCKYSFEEEHCSTSDVNGFCSEDRVWEKLEYLSLWINVGEFLTPLPMTGLDDCPNLEEIRIKIEGDCRGKRRPAEPEFGLSCLALYPKLSKMQLDCGDTIGFALTAPPMQMDLSLWERFFLTGIGSLSLSELDYWPPQDRDVNQRSLSLPGAGLLQECLTLRKLFIHGTAHEHFMNFLLRIPNLRDVQLRADYYPAPENDMSTEMRVGSCSRFEDQLNSRNIID | directly bound to ASK1 |  |  | did not exhibit positive signals for binding to ASK1 |
